Measured values as given in patent publication US20200230166A1, “Oligonucleotides in food, beverage, cosmetic and medicinal formulations” (DNA Essence GmbH, priority 2015, published 2020).

Type: in vitro ADME
Protocol: In order to simulate the effect of digestion and oligonucleotide uptake without human trials and without harming endangered species, in vitro gastro-intestinal digestion experiments were performed. […] In short, oral, gastric and intestinal passage were simulated by emulating their respective chemical and enzymatic compositions.
The integrity of the oligonucleotides after in vitro digestion was determined through realtime PCR. Quantification of full length genes was performed using the Applied
Biosystems 7500 (Thermo Fisher Scientific Inc.) with the gScript™ One-Step SYBR® Green qRT-PCR Kit, ROX™ (QuantaBio Inc.) and oligonucleotide primers (Prim_SEQ1 for [ATGCCCTTGTCCAGTC], Prim_SEQ1 rev[CTAGAAAGCACAGCTG]) annealing (53° C.) at the ends of the full length gene. […] In order to simulate the in vitro passage of a traditional extract, a piece of dried beef meat (“beef jerky”, Bos taurus) was used and oligonucleotides for the corresponding growth factor 1 (GenBank: V00111.1) derived (for [acggctcagg gtccgtgaca], rev [ctaataaaat gaggaaattg]). Dried beef samples were rinsed in deionized, sterile water for 14 hours at 21° C. followed by an incubation with proteinase K (400 ng/mL, P2308 Sigma-Aldrich, USA) and guanidine hydrochloride (5 mol/L, CAS Number: 50-01-1) in 1 mL volume for 12 h at 55° C. […]

B1: SEQ ID NO: 1: growth hormone 1 (GH1) of Panthera tigris altaica (tiger) (nucleic acid)
DNA: ATGCCCTTGTCCAGTCTGTTTGCCAACGCCGTGCTCCGGGCCCAGCACCTGCACCAGCTGGCCGCCGACACCTACAAAGAGTTTGAGCGGGCGTACATCCCGGAGGGACAGAGGTATTCCATCCAGAACGCGCAGGCTGCCTTCTGCTTCTCGGAGACCATCCCGGCCCCCACGGGCAAGGACGAGGCCCAGCAGAGATCCGTGAGTGGCCAGGGGCGCCCGGCCAAGGATCAGGGGCCTCCCTCGTCTGCAGGAGTCAGGCCCTGGGCAGCCTTCTCCCTGGGGCCGAGGGTGTGCAGGGAGGCAGACTGGGCCTCTCCGTCCCTCTTCCCCTTTTTGCAGGAGCTGGAAGATGGCAGCCCCCGGGCCGGGCAGATCCTGAAGCAAACCTACGACAAGTTTGACACAAACTTGCGCAGTGACGACGCGCTGCTCAAGAACTATGGGCTCCTGTCCTGCTTCAAGAAGGACCTGCACAAGGCTGAGACGTACCTGCGGGTCATGAAGTGTCGCCGCTTCGTGGAAAGCAGCTGTGCTTTCTAG
modifications: Panthera tigris altaica
  detection of full length gene oligonucleotide by realtime PCR: easily detectable amounts
After passing through the in vitro digestion assay, 1 million oligonucleotide molecules or more, of 40 cycles
  crossing point (CP) of full length oligonucleotide in realtime PCR: 23 cycles
